Data set [1] has as its target L1 ENp (L1 ORF2 endonuclease domain) (Homo sapiens) (UniProt O00370). The experiment in a line: cleavage_in_vitro. The conditions noted are these: turnover number; Mg greatly preferred over Mn.
Data set [2] concerns L1 ENp E43A E43A (Homo sapiens). Nature of the data set: cleavage_in_vitro. The conditions noted are these: slightly leaky; 5 mM MgCl2.

UniProt O00370, sequence (O00370 1-239): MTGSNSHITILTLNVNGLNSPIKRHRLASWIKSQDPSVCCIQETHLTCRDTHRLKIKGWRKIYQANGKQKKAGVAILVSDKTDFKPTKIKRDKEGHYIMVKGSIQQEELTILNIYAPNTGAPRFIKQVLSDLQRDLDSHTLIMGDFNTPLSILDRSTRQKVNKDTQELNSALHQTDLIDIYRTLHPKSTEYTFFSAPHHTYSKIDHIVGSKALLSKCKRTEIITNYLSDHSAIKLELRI

pBS plasmid, native had an activity (phosphodiester bond cleavages per hour) in data set [1] of 2. Besides, in data set [2], the cleavage activity (fold less than wild type) came out at 20.

Source of the values: patent US20030121063.
